The record followed here is US20180169199A1.

In assay [1] the target is HLA-A*02:01 molecule (product of HLA-A*02:01 gene) (human). The assay can be described thus: flow cytometry, T2 cells + β2m, peptide dilution series, BB7.2 staining. In general terms: In flow cytometry, cells or beads pass a laser one at a time.
For assay [2], the target named is HLA-A*02:06 molecule (product of HLA-A*02:06 gene) (human). The assay can be described thus: flow cytometry, RA2.6 cells, peptide dilution series, BB7.2 staining.
Assay [3] has as its target HLA-A*24:02 molecule (product of HLA-A*24:02 gene) (human). The assay can be described thus: flow cytometry, acid-stripped C1R-A24 cells + β2m, peptide dilution series, 17A12 staining.

For KLLQDFFNG (modifications not checked) [peptide … (SEQ ID NO: 4)], the Binding Experiment Data (log Kd) in assay [1] is -4.96 log Kd; in assay [2], -5.27 log Kd.

Take YGAAVQAAI (modifications not checked) [peptide … (SEQ ID NO: 7)]: the Binding Experiment Data (log Kd) was -4.9 log Kd in assay [1], -5.37 log Kd in assay [2] and -5.5 log Kd in assay [3].

With AMTKDNNLL (modifications not checked) [peptide … (SEQ ID NO: 9)], the Binding Experiment Data (log Kd) in assay [1] is -5.56 log Kd; in assay [2], -4.28 log Kd; in assay [3], -5.49 log Kd.

Consider TFDVSILTI (modifications not checked) [peptide … (SEQ ID NO: 2)], for which the Binding Experiment Data (log Kd) in assay [3] is -6.24 log Kd.

Consider YAFNMKSAV (modifications not checked) [peptide … (SEQ ID NO: 13)], for which the figures for the Binding Experiment Data (log Kd) in assay [1] and in assay [2] were -5.09 log Kd and -5.02 log Kd, respectively.

With NLLGRFELS (modifications not checked) [peptide … (SEQ ID NO: 11)], the Binding Experiment Data (log Kd) in assay [1] is -4.56 log Kd; in assay [2], -5.18 log Kd.

As to ITRARFEEL (modifications not checked) [peptide … (SEQ ID NO: 10)], the figures for the Binding Experiment Data (log Kd) in assay [1], in assay [2] and in assay [3] were -4.33 log Kd, -5.58 log Kd and -5.21 log Kd, respectively.

Regarding VLVGGSTRI (modifications not checked) [peptide … (SEQ ID NO: 5)], the Binding Experiment Data (log Kd) was -4.86 log Kd in assay [1], -5.07 log Kd in assay [2] and -6.17 log Kd in assay [3].

On to MVLTKMKEI (modifications not checked) [peptide … (SEQ ID NO: 6)], for which the Binding Experiment Data (log Kd) is -4.59 log Kd in assay [1], -5.53 log Kd in assay [2] and -5.82 log Kd in assay [3].

Consider AQIHDLVLV (modifications not checked) [peptide … (SEQ ID NO: 12)], for which the Binding Experiment Data (log Kd) was -6.15 log Kd in assay [1] and -6.45 log Kd in assay [2].

Turning to NQPGVLIQV (modifications not checked) [peptide … (SEQ ID NO: 14)], the Binding Experiment Data (log Kd) in assay [1] was -5.91 log Kd; in assay [2], -6.42 log Kd.

For LLLDVAPLS (modifications not checked) [peptide … (SEQ ID NO: 8)], the Binding Experiment Data (log Kd) was -6.06 log Kd in assay [1] and -6.17 log Kd in assay [2].

As to FYPEEISSM (modifications not checked) [peptide … (SEQ ID NO: 3)], in assay [3], the Binding Experiment Data (log Kd) was -7.66 log Kd.

Take SVTNAVITV (modifications not checked) [peptide … (SEQ ID NO: 15)]: the Binding Experiment Data (log Kd) in assay [1] is -4.76 log Kd; in assay [2], -5.59 log Kd; in assay [3] it was -4.37 log Kd.
